Measured values: US20240228542A1, “LYTIC DOMAIN FUSION CONSTRUCTS, CHECKPOINT INHIBITORS, AND METHODS OF MAKING AND USING SAME” (A28 Therapeutics Inc., priority 2020, published 2024)

Legend:
OVCAR-3 = assay: Cytotoxicity in OVCAR-3 ovarian cancer cells; assay type: cell-based; conditions: OVCAR-3 ovarian cancer cell line; read-out: IC50 in Human Cancer Cell Lines
Procedure: (§1) MDA-MB-435S.luc cells were grown in Leibovitz's L 15 medium, 10% fetal bovine serum, 0.01 mg/ml bovine insulin, 100 IU/ml penicillin, 100 microg/ml streptomycin. The cells were cultured in tight closed flasks. The incubations were conducted using 96 well plates at 10,000 cells per well. Cells were typically seeded into 96 well plates and media was replaced after 48 hours of incubation. Each assay was conducted at increasing concentrations of 0, 0.001, 0.01, 0.05, 0.1, 0.5, 1, 2, 5, 10 and 100 micromolar doses of lytic peptide-binding domain conjugate. Each lytic peptide-binding domain conjugate provided in lyophilized form and was freshly dissolved in saline and added to cells. The duration of incubation was typically 24 h, and cell viability assays were conducted using formazan conversion assays (MTT assay). Controls contained saline or 0.1% triton as reference for 0 and 100% cell death, respectively.
(§2) To ascertain the IC50 of various fusion constructs on different human cancer cell lines compared to cisplatinum, IC50 of fusion constructs were evaluated as in Table 3.

LNCaP = assay: Cytotoxicity in LNCaP prostate cancer cells; assay type: cell-based; conditions: LNCaP prostate cancer cell line; read-out: IC50 in Human Cancer Cell Lines
Procedure: as §1, §2

SKOV-3 = assay: Cytotoxicity in SKOV-3 ovarian cancer cells; assay type: cell-based; conditions: SKOV-3 ovarian cancer cell line; read-out: IC50 in Human Cancer Cell Lines
Procedure: as §1, §2

OVCAR-3 xenograft = assay: OVCAR-3 ovarian cancer xenograft; assay type: in vivo, Nu/Nu mice; conditions: for tumor volume: OVCAR-3 xenograft, CLIP71 2 mg/kg, cisplatinum 10 mg/kg
Procedure: In brief, Nu/Nu female mice, inbred strain, age 5 weeks (Harlan-Sprague Dawley) were injected subcutaneously with a NIH:OVCAR-3 cells/Matrigel suspension (4.6×10^6 cells/mouse). Treatment was started on day 33 after tumor cell injection when the tumors were established and continued on days 41 and 47. The doses for the 3 weekly injections were 0.02, 0.2 and 2 mg/kg body weight, given as a single bolus intravenous injection via lateral tail vein administered once a week for three weeks on days 33, 41 and 47. Necropsies were conducted on day 52. Data are presented as mean […]SEM. Arrows show dosing.
A group of 9 tumor bearing mice was sacrificed on day 33 and served as baseline group. All mice were necropsied 51-52 days after tumor cell injection. Tumor volumes and bodyweights were recorded twice weekly during the study, as well as overall veterinarian examination of mice was conducted.
Primary tumors, liver, kidney, pancreas, heart, lung, and spleen were collected, fixed in formalin and prepared for histological evaluation. Tumor weights were measured at necropsy, part of the tumors were frozen at −80° C. for LH/CG and LHRH receptor assay determination.
As a biomarker for drug activity, CA 125 was determined in serum, collected from each individual mouse at necropsy using a Enzyme Linked Immunoassay for quantitative determination of ovarian cancer antigen CA125 (Assay kit Genway, Biotech, Inc. San Diego, CA, Catalog #40-052-115009, #BC-1013 according to the manufacturer).
LHRH receptor levels were assessed from formalin fixed tumors. Quantitative immunoperoxidase image analysis was conducted with the Ventana Image Analysis System (VIAS) adjunctive computer assisted image analysis system functionally connected to an interactive microscope (Axio Imager). The quantitative analysis was conducted with the program for quantification of Her2/neu receptor that included morphometric and colorimetric analysis. Receptor status results were reported as percentage of cells showing positive staining of the LHRH receptors under the following criteria: 0 non-immunoreactive, 1+: 1-25% positive, 2+: 26-50% positive, 3+: 51-75% positive cells.

AN3-CA = assay: Cytotoxicity in AN3-CA endometrial cancer cells; assay type: cell-based; conditions: AN3-CA endometrial cancer cell line; read-out: IC50 in Human Cancer Cell Lines
Procedure: as §1, §2

MDA-MB-435S cells = conditions: reported; cited from earlier work
[1] = biological target: T1, luteinizing hormone-releasing hormone (LHRH) receptor, on human cancer cell lines (human) (UniProt P30968); assay: cell-based or functional assay
T1 sequence (looked up): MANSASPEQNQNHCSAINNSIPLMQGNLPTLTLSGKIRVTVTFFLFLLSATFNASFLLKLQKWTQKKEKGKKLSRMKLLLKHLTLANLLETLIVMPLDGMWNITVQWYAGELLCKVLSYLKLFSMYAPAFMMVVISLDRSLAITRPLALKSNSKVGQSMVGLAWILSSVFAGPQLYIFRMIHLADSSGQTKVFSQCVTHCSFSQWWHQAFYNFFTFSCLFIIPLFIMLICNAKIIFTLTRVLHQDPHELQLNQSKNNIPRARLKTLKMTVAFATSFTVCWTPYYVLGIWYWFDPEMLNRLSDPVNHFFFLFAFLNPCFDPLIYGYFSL

[2] = biological target: T2, luteinizing hormone-releasing hormone receptor (LHRH-R), on murine cancer cell lines (mouse) (UniProt Q01776); assay: cell-based or functional assay
T2 sequence (looked up): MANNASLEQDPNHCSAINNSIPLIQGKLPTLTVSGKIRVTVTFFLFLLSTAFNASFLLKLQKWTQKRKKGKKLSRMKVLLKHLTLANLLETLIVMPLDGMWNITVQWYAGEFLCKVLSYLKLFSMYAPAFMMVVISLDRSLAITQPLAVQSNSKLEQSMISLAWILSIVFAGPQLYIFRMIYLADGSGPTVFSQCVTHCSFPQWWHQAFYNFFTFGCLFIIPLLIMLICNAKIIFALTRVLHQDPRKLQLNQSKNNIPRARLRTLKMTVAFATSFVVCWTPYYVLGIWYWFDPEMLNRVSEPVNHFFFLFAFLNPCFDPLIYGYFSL

[3] = biological target: chorionic gonadotrophin (CG) receptor, on MDA-MB-435S.luc cells (human) (UniProt P22888); assay: cell-based or functional assay

With `N.N.[Cl][Pt][Cl]` [Cisplatinum, reference compound] the IC50 (OVCAR-3) was 184 µM, the IC50 (LNCaP) was 19.9 ± 1.4 µM and the IC50 (SKOV-3) was 321 ± 10 µM. For the same molecule, the tumor weights (OVCAR-3 xenograft; OVCAR-3 xenograft at necropsy) was “not effective in reducing tumor weights”, the tumor volume (OVCAR-3 xenograft) was “no reduction in tumor volume” and the tumor volume (OVCAR-3 xenograft; listed as cisplatinum) was “tumor growth was observed”. It also gave an IC50 (AN3-CA) of 11.8 ± 0.16 µM.

For `COc1cccc2c1C(=O)c1c(O)c3c(c(O)c1C2=O)C[C@@](O)(C(=O)CO)C[C@@H]3O[C@H]1C[C@H](N)[C@H](O)[C@H](C)O1` [doxorubicin], the “time to destroy human melanoma cells in vitro” value (MDA-MB-435S cells) is given as 4 h.

With Phor18-LHRH (338613) (peptide) the IC50 of cytotoxicity (MTT), MDA-MB-435S cells, 0.5 hour [1] was 1.2 µM, the IC50 of cytotoxicity (MTT), MDA-MB-435S cells, 1 hour [1] was 0.6 µM and the IC50 of cytotoxicity (MTT), OVCAR-3 cells, increasing incubation time, value 1 of 7 [1] was 6.7 µM. For the same molecule, the IC50 of cytotoxicity (MTT), OVCAR-3 cells, increasing incubation time, value 2 of 7 [1] was 5.6 µM, the IC50 of cytotoxicity (MTT), OVCAR-3 cells, increasing incubation time, value 3 of 7 [1] was 5.3 µM and the IC50 of cytotoxicity (MTT), OVCAR-3 cells, increasing incubation time, value 4 of 7 [1] was 1.6 µM. It also gave an IC50 of cytotoxicity (MTT), OVCAR-3 cells, increasing incubation time, value 5 of 7 [1] of 1.5 µM, an IC50 of cytotoxicity (MTT), OVCAR-3 cells, increasing incubation time, value 6 of 7 [1] of 0.5 µM and an IC50 of cytotoxicity (MTT), OVCAR-3 cells, increasing incubation time, value 7 of 7 [1] of 0.5 µM. For the same molecule, the IC50 of cell viability, murine ovarian cancer cell lines, 72 hours [2] was 1 to 1.3 µM, the IC50 of cytotoxicity (CellTiter Glo), EMT-6 cells, 4 h [2] was 5.8 µM and the IC50 of cytotoxicity (CellTiter Glo), EMT-6 cells, 8 h [2] was 5.7 µM. It also gave an IC50 of cytotoxicity (CellTiter-Glo), 2C12 cells, 24 h [2] of 1.02 µM, an IC50 of cytotoxicity (CellTiter-Glo), ID8 cells, 24 h [2] of 1.37 µM and an IC50 of cytotoxicity (CellTiter-Glo), IF5 cells, 24 h [2] of 1.01 µM. For the same molecule, the IC50 of cytotoxicity (CellTiter-Glo), IG10 cells, 24 h [2] was 1.03 µM and the IC50 of cytotoxicity (CellTiter-Glo), cell line printed as 242, 24 h [2] was 1.38 µM.

Molecule Phor21-βCG-ala (323033) (peptide) has an IC50 of cytotoxicity, MDA-MB-435S.luc cells (carry CG receptors) [3] of 2.3 µM.
